As usually defined, the Kd is the constant that tells how readily two partners part at equilibrium. Read a high Kd as a looser complex.

Read-outs that look alike come from different tables or passages of the source. A value given as a limit tells only on which side of the number the result lay.

We go through four substances from paper doi:10.1101/2022.05.11.491540.

For series [1], the system named is Sirt7 (Sirt7WT) (human). The series is described as follows: fluorescence polarization. (Polarisation of emitted light reports the rotation of a fluorescent probe.)
Series [2] has as its system Sirt7-CLB (human). Kind of series: NanoLuc complementation.
Series [3] deals with isolated NanoLuc Large Bit. Kind of series: NanoLuc complementation.
The test system of series [4] is Sirt7 (Sirt7WT) (human). Kind of series: kinetic titration.

With 20 bp FAM-DNA, the Kd in series [1] was determined as 57.2 nM. For “SMB-AcNucs (H3K18Ac small-bit nucleosome)”, in series [2] (histone H3K18 acetylation), the Kd stood at 3.75 nM and the binding signal (fold lower Kd than without ADPr) is 2.5. Consider “SMB-Nucs (unmodified small-bit nucleosome)”, for which the dissociation constant Kd is 3.92 nM in series [2] and over 5000 nM in series [3].

Substance nucleosome core particle (unmodified) came in with a Kd in series [4] of 2.92 nM.
